Earlier results on 1 substance are cited in PMC8035318.

This series concerns the target Polκ RIR (Homo sapiens) (UniProt Q9UBT6). The experiment in a line: SPR. A general note: SPR reads the build-up and loss of mass on a sensor chip optically.

As a reminder, the Kd is the equilibrium constant for the complex coming apart. For the substance Rev1 CT (from UniProt Q9UBZ9), the Kd was 1700 nM.
